Here are results for 41 sequences from the nanobody polyreactivity screen of Harvey et al. (2022).

A short description of this data set: yeast display, Sf9 membrane polyspecificity reagent, FACS + sequencing; frameworks hold sequencing errors. The method, boiled down:
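Galactose-induced (36–48 hours) yeast carrying a synthetic nanobody display library were exposed to 10% biotinylated, detergent-solubilized Sf9 membrane reagent at 4 °C for 1 hour. FACS followed streptavidin microbead enrichment, using low and high (top ~1%) gates for expression (anti-HA) and reagent binding (streptavidin). Colony PCR, MiSeq 2 × 250 sequencing and CDR-length filtering followed. Labels for polyreactivity reflect the gate of origin.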
As to “QVQLVESGGGLVQAGGSLRLSCDASGRICGTNAMGWYRQAPGKERELVADITSGGSTNYADSVKGRFTISRDYAKNTVYVQMNSLKPEDTAVYYCAADVIGDLRWYRDEYWGQGTQVTVSS”, the “polyreactivity (PSR sort gate)” value is on record as “low polyreactivity”.

Turning to “QVQLVESGGGLVQAGGSLRLSCDASGRIFDANVMGWYRQAPGKERELVAAISSGGRTKYADSVKGRFTISRDNAKNTVYLQMNSLKPEDTAVYYCNADYRNDWGTPLWYAYNYWGQGTQVTVSS”, the “polyreactivity (PSR sort gate)” value is recorded as “low polyreactivity”.

On to “QVQLVESGGGLVQAGGSLRLSCDASGRIFDYYAMGWYRQAPGKEMELVAAISTSGGSTYYADSVKGRFTISRDNAKNTVYLQMTRLKPEDTAVYYWAKDITDTYPGLDYDYWGQGTQVTVSS”, for which the “polyreactivity (PSR sort gate)” value was “low polyreactivity”.

Turning to “QVQLVESGGGLVQAGGSLRLSCDASGRIFFWYAMGWYRQAPGKERELVAGITSAGSTNYADSVKGRFTISRDNAKNTVYLQMNSLKPEDTSVYFCNTVDSIPIGSGLYYYWGQGTQVTVSS”, the “polyreactivity (PSR sort gate)” value is “low polyreactivity”.

With “QVQLVESGGGLVQAGGSLRLSCDASGRIFRVYAMGWYRQAHGKERQLVAAIRWTGGSTYYADSVKGRFKISRDNAKNTVYLQMNSLKPEDTAVYYCAAGRYYSDGSRTIYDYWGQGTQVTVSS”, the “polyreactivity (PSR sort gate)” value was “low polyreactivity”.

“QVQLVESGGGLVQAGGSLRLSCDASGRIFVRYTMGWYRQATGKERELVAAITRSGGTYYADSVKGRFTISRDNATNTVYLQMNSLKPEDTAVYYCAADSWLSLWYEYWGQGTQVTVSS”: the “polyreactivity (PSR sort gate)” value is “low polyreactivity”.

Consider “QVQLVESGGGLVQAGGSLRLSCDASGRIFYINALGWYRQAPGKERELVASITGSGDSTYYADSVKGRFTISRDNAKNTVYLQMNILKPEDTAVYYCAARTYYYYGPRYYYWGQGTQVTVSS”, for which the “polyreactivity (PSR sort gate)” value was “low polyreactivity”.

“QVQLVESGGGLVQAGGSLRLSCDASGRTFAGYAMGWYRQAPGKERELVAAITTSGGRTYYADSVKGRFTISRDNAKNTVYLQMNSLKPEDTAVYDCNVASKGRYARYAAEYGSWGQGTQVTVSS”: the “polyreactivity (PSR sort gate)” value was “high polyreactivity”.

For the sequence “QVQLVESGGGLVQAGGSLRLSCDASGRTFGLNAMGWYRQAPGKERDLVAAISSSGGSTYYADSVKWRFTISRDNAKNTVYLQMNRLKPEDNAVYYCAKVLYRYGNDYYYWGQGTQVTVSS”, the “polyreactivity (PSR sort gate)” value is recorded as “high polyreactivity”.

In the case of “QVQLVESGGGLVQAGGSLRLSCDASGRTFGNNAMGWYRQAPGKERELVASISSSGGTNYADSVKGRFTISRDNAKNTVYVQLNSLKPEDTAVYYCAKRKFTARQRYNYWGQGTQVTVSS”, the “polyreactivity (PSR sort gate)” value is listed as “high polyreactivity”.

For “QVQLVESGGGLVQAGGSLRLSCDASGRTFIGYAMGWYRQAPGKERELVAAINWSGARTYYADSVKGRFTISRDNAKNTVYLQMNSLKPEDTAVYYCAAVPVTSQTKYGYWGQGTQVTVSS”, the “polyreactivity (PSR sort gate)” value is on record as “high polyreactivity”.

With “QVQLVESGGGLVQAGGSLRLSCDASGRTFLRNTMGWYRQAPGKERELVAAISRSGATTYYADSVKGRFTISRDNAKNTVYLQMNTLKPEDTADYYCAAAYRGREVEYNSWGQGTQVTVSS”, the “polyreactivity (PSR sort gate)” value is “high polyreactivity”.

Regarding “QVQLVESGGGLVQAGGSLRLSCDASGSIFDLNAMGWYRQAPGKERELVAAISSGGGTNYADSVKGRFTISRDNAKNTVYLQMYSLKPEDTAVYYCAVGSTRDGVYLGQGTQVTVSS”, the “polyreactivity (PSR sort gate)” value is “high polyreactivity”.

With “QVQLVESGGGLVQAGGSLRLSCDASGSIFVKNAMGWYRQAPGKERELVAVITIRTATTYYADSVKGRFTISRDNAKNTVYLQMNSLKPEDTAVYYCASAKRQRGYLQREGNYWGQGTQVTVSS”, the “polyreactivity (PSR sort gate)” value was “low polyreactivity”.

For “QVQLVESGGGLVQAGGSLRLSCDASGSIFYPYAMGWYRQAPGKERELVASISWSGGSTRYADSVKGRFTISRDHAKNTVYLQMNSLKPEDTAVYYCAARYILSKYGSGVRYYYWGQGTQVTVSS”, the “polyreactivity (PSR sort gate)” value is on record as “high polyreactivity”.

For the sequence “QVQLVESGGGLVQAGGSLRLSCDASGSIFYYNAMGWYRQAPGKERELVAAISVSGGSTYYADSVKGRFTISRDNAKNTVYLQMNSLKPEDTAVYYCAAEWLYYYWLPGRADYLEYDYWGQGTQVTVSS”, the “polyreactivity (PSR sort gate)” value is listed as “low polyreactivity”.

With “QVQLVESGGGLVQAGGSLRLSCDASGSISIGYTMGWYRQAPGKERELVATISWSGGNTYYADSVKGRFTISRDNAKNTVYLQMNSLKPEDTAVYYCAARWYYYPLLYDYWGQGTQVTVSS”, the “polyreactivity (PSR sort gate)” value is reported as “low polyreactivity”.

Turning to “QVQLVESGGGLVQAGGSLRLSCDASGSTFASYAMGWYRQAPGKERELVAAIRWSGGTTYYADSVKGRFTISRDNAKNTVYLLMNSLKTEDTAVYYCNADRYYLYYYWGQGTQVTVSS”, the “polyreactivity (PSR sort gate)” value is listed as “low polyreactivity”.

As to “QVQLVESGGGLVQAGGSLRLSCDASGSTFPKYAMGWYRQAHGKERELVAAITSSGGRTFYADSVKGRFTISRDNAKNTVYLQMNSLKPEDTAVYYCAAYYYSWSGAFIYDYWGQGTQVTVSS”, the “polyreactivity (PSR sort gate)” value is recorded as “high polyreactivity”.

Take “QVQLVESGGGLVQAGGSLRLSCDASGSTFSYYAMGGYRQAPGKERELVAAISGRGGSTYYADSVKGRFTISRDNAKNTVYLQMNSLKPEDTAVYYCAKGRLYTAYGLYSWGQGTQVTVSS”: the “polyreactivity (PSR sort gate)” value is “high polyreactivity”.

On to “QVQLVESGGGLVQAGGSLRLSCDASGSTFVGNSMGWYRPAPGKERELVAALTQSGGNTFYADSVKGRFTISRDYAKNTVYLQINSLKPEDTAVYYCAATVSNGVKLDGPARVDLDYWGQGTQVTVSS”, for which the “polyreactivity (PSR sort gate)” value is given as “low polyreactivity”.

“QVQLVESGGGLVQAGGSLRLSCDASGSTFWYYAMGWYRQAPGKERELVASITSSGSTNYADSVKGRFTISRDNAKNTVYLQMNSLKPEDTAVYYCNRVSKYERLSRYGYYGYYYWGQGTQVTVSS”: the “polyreactivity (PSR sort gate)” value is “high polyreactivity”.

Take “QVQLVESGGGLVQAGGSLRLSCDASGSTFYYYAMGWYRQAPGKERELVDSISFSGGSTYYADSVKGRFTISRDNAKNTVYLQMNSLKPEDTAVYYCGYYYWGQGTQVTVSS”: the “polyreactivity (PSR sort gate)” value is on record as “low polyreactivity”.

As to “QVQLVESGGGLVQAGGSLRLSCDASGSTSPGYAMGWYRQAPGKERELVAAITFRGTRTYYADSVKGRFTISRDNAKNTVYLQINSLKPEDTAVYYCNVVGYGPNRGRVDYWGQGTQVTVSS”, the “polyreactivity (PSR sort gate)” value is recorded as “high polyreactivity”.

Take “QVQLVESGGGLVQAGGSLRLSCDASGTTFVFNAMGWYRHAPGKERELVAAISFSSDTTHYADSVKGRFTISRDNAKNTVYLQMNSLKPEDTAVYYCAADFVGYARNWYYFCGQGTQVTVSS”: the “polyreactivity (PSR sort gate)” value is given as “low polyreactivity”.

Regarding “QVQLVESGGGLVQAGGSLRLSCDASGYIFNYAMGWYRQAPGKERELVPAISRRGGSTYYADSVKGRFTISRDNAKNTVYLQMNSLKPEDTSVYYCAADRFRRLHYWTYDYWGKGTQVTVSS”, the “polyreactivity (PSR sort gate)” value was “high polyreactivity”.

As to “QVQLVESGGGLVQAGGSLRLSCDATGSIISYNTMGWYRQAPGKERELVAAITWGGRTYYADSVKGRFTISRDNAKNTVYLQMNSLKPEDTAVYYCAKRIRGGAPTYDYWGQRTQVTVSS”, the “polyreactivity (PSR sort gate)” value is reported as “low polyreactivity”.

Regarding “QVQLVESGGGLVQAGGSLRLSCDAYGSTFERYVMGWYCQRLGKKGSWLPVLNHNGGSTYYADSVKGRFTISRDNAKNTVYLQMNSLKPEVTAVYYCAPSFRTVLDDGYWGQGSQVTVSS”, the “polyreactivity (PSR sort gate)” value was “low polyreactivity”.

For the sequence “QVQLVESGGGLVQAGGSLRLSCDGSGSIISAYTMEWYRQAPGKEREYVAAIRWSGDSTYYSDSVKGRFTISRDNAKNTVYLQMNSLKPEDTAVYYCAARDLWFPRYSSRYYYWGQGTQVTVSS”, the “polyreactivity (PSR sort gate)” value is listed as “high polyreactivity”.

Consider “QVQLVESGGGLVQAGGSLRLSCGAAGSIFAPYALGWYRQAPGKERELVAAISWTGGRTYYADSVKGRFTISRDNAKNTVYLQRNSLKPEDTAVYYCAAAYYGTRPYGYWGQGSQVTVSS”, for which the “polyreactivity (PSR sort gate)” value is “high polyreactivity”.

“QVQLVESGGGLVQAGGSLRLSCGASGIIFASNGMGWYRQAPGKERELVAAISSGGSTNYADSVKGRFTISRDNAKNTVYLQMNSLKPEDTSVYYCAADRWYREYDYWGQATQVTVSS”: the “polyreactivity (PSR sort gate)” value is “low polyreactivity”.

In the case of “QVQLVESGGGLVQAGGSLRLSCGASGITFVYYTMGWYRQAPGKERELVAAISKNGGSTYYADSVKGRFTISRDNAKNTVYLQMNSLKPEYTAFSYCAAEEGYRWVRYNYWGQGTQVTVSS”, the “polyreactivity (PSR sort gate)” value is given as “high polyreactivity”.

Turning to “QVQLVESGGGLVQAGGSLRLSCGASGRIFNSNAMGWYRQAPGKERELVAASSWSGGTSYYADSVKGRFTISRDNAKNTVYLQLNSLKPEDTAVYYCNAVGLHWWPGDYWGQGTQVTVSS”, the “polyreactivity (PSR sort gate)” value is on record as “low polyreactivity”.

“QVQLVESGGGLVQAGGSLRLSCGASGRTFPVYAMGWYRQAPGKERELVADISDGGSTNYADSVKGRFTISRDNAKNTVDLQMNSLKPEDTAVYYCNATTFAFSPSLKGAYGYWGQGTQVTVST”: the “polyreactivity (PSR sort gate)” value was “low polyreactivity”.

Regarding “QVQLVESGGGLVQAGGSLRLSCGASGRTFQFYAMGWYRQAPGKERELVAAISRSSGSTTYADSVKGRFTISRDNAKNTVYLQMNSLKPEDTAVYYCAARRKGKARVPQYDYWGQGTQVTVSS”, the “polyreactivity (PSR sort gate)” value is “high polyreactivity”.

Take “QVQLVESGGGLVQAGGSLRLSCGASGRTFRRNAMGRYRQAPGKERELVAAIRWSSGSTYYADSVKGRFTISRDNAKNTVYLQMNSLKPEDTAVYYCAKRQWGGRESFDYWGQGTQVTVSS”: the “polyreactivity (PSR sort gate)” value is “low polyreactivity”.

In the case of “QVQLVESGGGLVQAGGSLRLSCGASGSTFYGYAMGWYRQAPGTEREVVAAISSGGSTYYADSVKGRFTISRDNAKNTVYLQMNSLKPEDTAVYYCDAVGYFWITNHKDYYWGQGTQVTVSS”, the “polyreactivity (PSR sort gate)” value was “high polyreactivity”.

In the case of “QVQLVESGGGLVQAGGSLRLSCGASGSTFYYYTMGWYRQAPGKERELVAAISFIGGSTYYADSVKGRFTISRDNAKNTVYLQMNSLKPEDTAVYYCAAEFYGLVSLSFSYDYWGQGTQVTVSS”, the “polyreactivity (PSR sort gate)” value was “low polyreactivity”.

Take “QVQLVESGGGLVQAGGSLRLSCHASGSTFTFNAMGWYRQAPGKERELVADITSGGRTNYADSVKGRFTISRDNAKNTVYLQMNSLKPEDTAVYYCAARWSAHEYPGYDSWGQGTQVTVSS”: the “polyreactivity (PSR sort gate)” value is listed as “low polyreactivity”.

On to “QVQLVESGGGLVQAGGSLRLSCPASGFTFVTNAMGWYRQAPGKERELVAAISKSGDRTYYADSVKGRFTISRDNAKNTVYLQMNSLKPEDTAVYYCAAGNSNWGQGTQVTVSS”, for which the “polyreactivity (PSR sort gate)” value is “high polyreactivity”.

In the case of “QVQLVESGGGLVQAGGSLRLSCPASGLIFRSYAMGRYRQAPGKERELVARISIRGGSTYYADSVKGRFTISRDNAKNTVYLQMNSLKPEDTAVYYCAAVGYLGGYRYDYWGQGTQVTVSS”, the “polyreactivity (PSR sort gate)” value is “high polyreactivity”.
